The text below walks through data of patent publication US7276337B2, “Compositions and methods for visual ribonuclease detection assays” (Integrated DNA Technologies, Inc., priority 2000, dated 2007).

First the molecules themselves.
B1: RNase T1: commercial enzyme reagent from Ambion, tested for RNase activity (protein, UniProt P00651 27-130, looked up)
Guanyl-specific ribonuclease …: ACDYTCGSNCYSSSDVSTAQAAGYQLHEDGETVGSNSYPHKYNNYEGFDFSVSSPYYEWPILSSGDVYSGGSPGADRVVFNENNQLAGVITHTGASGNNFVECT
B2: RNase A: commercial enzyme reagent from Ambion, tested for RNase activity (protein, UniProt P61823 27-150, looked up)
Ribonuclease pancreatic: KETAAAKFERQHMDSSTSAASSSNYCNQMMKSRNLTKDRCKPVNTFVHESLADVQAVCSQKNVACKNGQTNCYQSYSTMSITDCRETGSSKYPNCAYKTTQANKHIIVACEGNPYVPVHFDASV
B3: Proteinase K: commercial enzyme reagent from Ambion, sold as RNase-free (protein, UniProt P06873 106-384, looked up)
Proteinase K: AAQTNAPWGLARISSTSPGTSTYYYDESAGQGSCVYVIDTGIEASHPEFEGRAQMVKTYYYSSRDGNGHGTHCAGTVGSRTYGVAKKTQLFGVKVLDDNGSGQYSTIIAGMDFVASDKNNRNCPKGVVASLSLGGGYSSSVNSAAARLQSSGVMVAVAAGNNNADARNYSPASEPSVCTVGASDRYDRRSSFSNYGSVLDIFGPGTSILSTWIGGSTRSISGTSMATPHVAGLAAYLMTLGKTTAASACRYIADTANKGDLSNIPFGTVNLLAYNNYQA
B4: Bam HI: commercial enzyme from New England Biolabs, sold as RNase-free (protein, UniProt P23940 1-213, looked up)
Type II restriction enzyme …: MEVEKEFITDEAKELLSKDKLIQQAYNEVKTSICSPIWPATSKTFTINNTEKNCNGVVPIKELCYTLLEDTYNWYREKPLDILKLEKKKGGPIDVYKEFIENSELKRVGMEFETGNISSAHRSMNKLLLGLKHGEIDLAIILMPIKQLAYYLTDRVTNFEELEPYFELTEGQPFIFIGFNAEAYNSNVPLIPKGSDGMSKRSIKKWKDKVENK
B5: RNase 1: commercial enzyme reagent from Ambion, tested for RNase activity (protein, UniProt P21338 24-268, looked up)
Ribonuclease I: LALQAKQYGDFDRYVLALSWQTGFCQSQHDRNRNERDECRLQTETTNKADFLTVHGLWPGLPKSVAARGVDERRWMRFGCATRPIPNLPEARASRMCSSPETGLSLETAAKLSEVMPGAGGRSCLERYEYAKHGACFGFDPDAYFGTMVRLNQEIKESEAGKFLADNYGKTVSRRDFDAAFAKSWGKENVKAVKLTCQGNPAYLTEIQISIKADAINAPLSANSFLPQPHPGNCGKTFVIDKAGY

The data set has as its system Substrate oligonucleotide SEQ ID NO:30. Nature of the data set: RNase testing of commercially obtained reagents, visual detection. The class given is biochemical. Details: key: +++ = maximum intensity; ++ = moderate intensity; + = faint but above background; − = negative (identical to background). The following applies: reagent diluted 1:10 with Assay Buffer, 50 pmoles Substrate SEQ ID NO:30, 60 minutes at 37° C., UV. On the procedure: Enzymes were obtained from New England Biolabs (NEB) or Ambion as indicated. Test sample (10 ul) was mixed with 1× buffer (90 ul) for a final volume of 100 ul with 50 pmoles of Substrate SEQ ID NO:30 in 0.5 ml RNase-free microtubes. Assay Mixes were incubated 60 minutes at 37° C. and visually examined under UV excitation for fluorescence emission. After scoring for results, 1 ul (1 ug) of RNase A was added to each tube. The Assay was incubated an additional 5 minutes at 37° C. and re-scored. The addition of RNase A represents a control for the absence of an Assay inhibitor and validates negative results. The “plus RNase A” control was omitted whenever the primary assay was already positive.
Table 9: RNase testing of commercially available reagents. A series of commercially available reagents were diluted 1:10 with Assay Buffer to a final volume of 100 ul. An RNase detection assay was performed using the method of the invention with Substrate oligonucleotide SEQ ID NO:30. Reactions were examined for fluorescence emission by visual inspection using an ultraviolet (UV) light source for excitation. Results were scored as +++, ++, +, or − based on relative signal intensity. As a control, RNase A (1 ug) was added to negative reactions and the Assay was re-scored. ND=not done.
For the molecule B1, the “Assay Results (RNase activity in reagent, relative signal intensity)” value is reported as “+++”.
Turning to B2, the “Assay Results (RNase activity in reagent, relative signal intensity)” value is “+++”.
Take B3: the “Assay Results (RNase activity in reagent, relative signal intensity)” value was “−”.
B4: the “Assay Results (RNase activity in reagent, relative signal intensity)” value is on record as “−”.
For B5 the value was “+++”.
